In US20260193669A1 (NYKODE THERAPEUTICS ASA, published 2026):

B1: Single chain PreF protein and ferritin (further polypeptide of DNA plasmids IV082 and IV084; also encoded alone by IV080) (other)
chain: QNITEEFYQSTCSAVSKGYLSALRTGWYTSVITIELSNIKENKCNGTDAKVKLIKQELDKYKNAVTELQLLMGSGNVGLGGAIASGVAVCKVLHLEGEVNKIKSALLSTNKAVVSLSNGVSVLTFKVLDLKNYIDKQLLPILNKQSCSISNIETVIEFQQKNNRLLEITREFSVNAGVTTPVSTYMLTNSELLSLINDMPITNDQKKLMSNNVQIVRQQSYSIMCIIKEEVLAYVVQLPLYGVIDTPCWKLHTSPLCTTNTKEGSNICLTRTDRGWYCDNAGSVSFFPQAETCKVQSNRVFCDTMNSRTLPSEVNLCNVDIFNPKYDCKIMTSKTDVSSSVITSLGAIVSCYGKTKCTASNKNRGIIKTFSNGCDYVSNKGVDTVSVGNTLYYVNKQEGKSLYVKGEPIINFYDPLVFPSDEFDASISQVNEKINQSLAFIRKSDELLSGGSSGSSGGSDIIKLLNEQVNKEMQSSNLYMSMSSWCYTHSLDGAGLFLFDHAAEEYEHAKKLIIFLNENNVPVQLTSISAPEHKFEGLTQIFQKAYEHEQHISESINNIVDHAIKCKDHATFNFLQWYVAEQHEEEVLFKDILDKIELIGNENHGLYLADQYVKGIAKSRKSGS
notes: Secreted into supernatant of Expi293F cells; 24-mer by native PAGE; also called further polypeptide (PreF protein)-ferritin nanoparticles, IV082 and IV084
B2: PreF protein and ferritin (further polypeptide of DNA plasmids IV083 and IV085; also encoded alone by IV081) (other)
chain: QNITEEFYQSTCSAVSKGYLSALRTGWYTSVITIELSNIKENKCNGTDAKVKLIKQELDKYKNAVTELQLLMGSGNVGLGGAIASGVAVSKVLHLEGEVNKIKSALLSTNKAVVSLSNGVSVLTFKVLDLKNYIDKQLLPILNKQSCSISNPETVIEFQQKNNRLLEITREFSVNAGVTTPVSTYMLTNSELLSLINDMPITNDQKKLMSNNVQIVRQQSYSIMSIIKEEVLAYVVQLPLYGVIDTPCWKLHTSPLCTTNTKNGSNICLTRTDRGWYCDNAGNVSFFPQAETCKVQSNRVFCDTMNSRTLPSEVNLCNVDIFNPKYDCKIMTSKTDVSSSVITSLGAIVSCYGKTKCTASNKNRGIIKTFSNGCDYVSNKGVDTVSVGNTLYYVNKQEGKSLYVKGEPIINFYDPLVFPSDEFDASISQVNEKINQSLAFINKSDELLSGSGSESQVRQQFSKDIEKLLNEQVNKEMQSSNLYMSMSSWSYTHSLDGAGLFLFDHAAEEYEHAKKLIIFLNENNVPVQLTSISAPEHCFEGLTQIFQKAYEHEQHISESINNIVDHAIKSKDHATFNFLQWYVAEQHEEEVLFKDILDKIELIGNENHGLYLADQYVKGIAKSRKS
notes: Secreted into supernatant of Expi293F cells; 24-mer by native PAGE; also called further polypeptide (PreF protein)-ferritin nanoparticles, IV083 and IV085

Target: the molecule itself
Test: blue native PAGE and Western blot of supernatant, Motavizumab detection; self-assembly

Protein	binding result
B1	binds
B2	binds
